In article PMC5404189:

Target: extracellular fibrinogen binding protein (Staphylococcus aureus) (UniProt A6QG59)
Test: ELISA

UniProt A6QG59, sequence (A6QG59 30-165): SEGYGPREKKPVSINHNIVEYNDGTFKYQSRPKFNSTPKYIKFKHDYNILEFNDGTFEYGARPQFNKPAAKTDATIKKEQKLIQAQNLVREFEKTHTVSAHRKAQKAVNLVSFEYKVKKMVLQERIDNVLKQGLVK

## human complement C3 (natural protein)
  reBC at 10% plasma: > 80%
